Assay [1] concerns the target human CD2 (CD2 antigen on human PBMC, on COS cells transfected with the entire CD2 molecule, and on CD2-expressing Jurkat cells) (human) (UniProt P06729). As to the kind of experiment: two-colour flow cytometry of human PBMC, biotinylated LO-CD2a (FL1) and Leu-5b-PE (FL2); upper left quadrant. On the technique in general: Flow cytometry measures light scatter and fluorescence of single cells or particles in a stream.

For assay [2] the target is unchanged. As to the kind of experiment: two-colour flow cytometry of human PBMC, biotinylated LO-CD2a (FL1) and Leu-5b-PE (FL2); upper right quadrant.

UniProt P06729, sequence (P06729 25-351): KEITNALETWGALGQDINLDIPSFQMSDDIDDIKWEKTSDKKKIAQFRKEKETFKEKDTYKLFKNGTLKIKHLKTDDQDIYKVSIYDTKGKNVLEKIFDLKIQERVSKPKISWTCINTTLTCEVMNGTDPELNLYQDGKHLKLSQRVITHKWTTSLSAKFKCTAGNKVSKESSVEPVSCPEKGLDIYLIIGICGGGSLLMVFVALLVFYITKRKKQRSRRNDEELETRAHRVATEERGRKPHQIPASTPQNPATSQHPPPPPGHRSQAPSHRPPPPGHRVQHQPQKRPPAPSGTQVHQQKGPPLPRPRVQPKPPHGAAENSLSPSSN

For “Leu-5b, mouse anti-human CD2 monoclonal antibody (Becton Dickinson)”, in assay [1], the % gated (quadrant 1UL) was 23.2% and the Y mean (quadrant 1UL) is 285. The substance further gave a Y mean (quadrant 2UR) in assay [2] of 631.

For the origin of these results see patent publication US6849258.
